Target: Calcineurin A subunit alone, residues 1-348 (human) (UniProt Q08209)
Assay: ITC; NFAT peptides, PALB2 or SYDE2 titrated into calcineurin in the cell; 25 °C; 20 mM Tris pH 7.5, 100 mM NaCl, 1.0 mM CaCl2, 0.5 mM TCEP; one set of sites model with n=1; averages of >=3 experiments (SYDE2: 2)

| Binder | Kd [µM] |
| --- | --- |
| DDQYLAVPQHPYQWAKPK [NFATc1 LxVP long peptide 383…400] | 2.4 |
| ESPRIEITS [NFATc1 PxIxIT peptide 116…124] | 4.1 |
